Assay results reported in patent publication US5985836A, “Alpha-1 proteinase inhibitor binding peptides” (Bayer Corporation, priority 1998, dated 1999).
Ends that are not written are not given here.

Legend:
[1] = biological target: T1, A1PI (Homo sapiens, UniProt P01009); test: A1PI binding on peptide-resin column, injection of 1 mg A1PI in equilibration buffer; conditions: for Percent A1PI Eluted by Fraction Based on Absorbance at 280 nm, 1M NaCl / Percent A1PI Eluted by Fraction Based on Absorbance at 280 nm, 2% Acetic Acid / Percent A1PI Eluted by Fraction Based on Absorbance at 280 nm, Flowthrough / Percent A1PI Eluted by Fraction, 1M NaCl / Percent A1PI Eluted by Fraction, 2% Acetic Acid / Percent A1PI Eluted by Fraction, Flowthrough: 1 mg A1PI in equilibration buffer; for Percent AlPI Eluted by Fraction, 1M NaCl / Percent AlPI Eluted by Fraction, 2% Acetic Acid / Percent AlPI Eluted by Fraction, Flowthrough: sequence order, 1 mg AlPI; for % of Total A1PI Eluted by Fraction (Based on Absorbance at 280 nm), 1M NaCl / % of Total A1PI Eluted by Fraction (Based on Absorbance at 280 nm), 2% Acetic Acid / % of Total A1PI Eluted by Fraction (Based on Absorbance at 280 nm), Flowthrough: VIFLVR point mutations, 1 mg A1PI
T1 construct: Human plasma is currently the only approved source of therapeutic AlPI
Procedure: (§1) Confirmatory binding assays were performed in a column chromatographic format on a microbore HPLC using individual peptide sequences synthesized directly onto the Toyopearl 650 M Chelate resin which had been modified with Totda followed by an alanine residue (A-Totda-Toyopearl), at a final substitution density of 0.1 mmole/g resin. The resin was packed into 0.4×5 cm columns (Thomson, Springfield, Va.) and tested on the Michrom HPLC system (Michrom BioResources, Auburn, Calif.). The elution program for all trials utilized the following method. The column was pre-equilibrated with equilibration buffer (as above). 1 ml of sample was injected and allowed sufficient time to flowthrough the column using equilibration buffer. The column was then washed with step elutions of 1M NaCl and 3M NaCl in equilibration buffer. The column was exposed to equilibration buffer with 0.1M NaCl. Any remaining protein was eluted with elution buffer (2% by volume glacial acetic acid in water).
(§2) A Gilson FC204 fraction collector at the HPLC outlet collected individual eluates for further analysis. Fractions collected from the 2% acetic acid eluates were neutralized with 2M Tris, pH 10.5 to bring the pH to neutrality. The protein samples were reconstituted in equilibration buffer unless otherwise stated. The samples were analyzed by the integration of the absorbance at 280 nm or by immunonephelometry. The specific method of determination is presented for each figure.
Tables 2 and 3 present the elution profiles for 19 sequences based on the injection of 1 mg AlPI in equilibration buffer at 4° C. and 20° C., respectively. The columns were run at a constant flow rate of865 μl/min (413 cm/hr) or 523 μl/min (250 cm/hr). No dependence of the elution profile with flow rate was found. The Percent AlPI Eluted by Fraction represents the amount eluted in the flowthrough, 1M NaCl wash, and 2% acetic acid fractions relative to the total AlPI eluted. The percentages are based on either the integration of the peak areas at […]

[2] = biological target: T1, A1PI; test: A1PI purification from 5 mg hSA + 1 mg A1PI on peptide column, A1PI mass balance; format: binding; conditions: A1PI, 5 mg hSA + 1 mg A1PI; for Mass Protein per Eluate Fraction, 1M NaCl / Mass Protein per Eluate Fraction, Flow / Mass Protein per Eluate Fraction, 2% Ac. Acid / Mass Protein per Eluate Fraction, 3M NaCl / Mass Protein per Eluate Fraction, 2% Acetic Acid: * Below detection limit
Procedure: as §1, §2
Columns were assayed with a mixture of 5 mg human serum albumin (hSA)+1 mg AlPI at 4° C. (Table 4, Seq. ID 1-11, 15, 17) and 20° C. (Table 5, Seq. ID 1-10, 13, 15, 17). The chromatography method was modified to provide for a 10 minute residence time of sample in the column by decreasing the flow to 17 μl/min (10 cm/hr) upon injection. Following the incubation, the flow was set at 865 μl/min (413 cm/hr) for the step elutions of 1M NaCl, 3M NaCl, and 2% acetic acid. The mass balances presented are based upon immunonephelometry. The Percent Eluted value is protein-specific and based on the amount of the protein eluted in a […]

[3] = 20° C., relative to total eluted
[4] = 4° C., relative to total eluted
[5] = Table 19, 4° C., relative to total loaded
[6] = Table 19, 20° C., relative to total loaded

T1 sequence (P01009 25-418): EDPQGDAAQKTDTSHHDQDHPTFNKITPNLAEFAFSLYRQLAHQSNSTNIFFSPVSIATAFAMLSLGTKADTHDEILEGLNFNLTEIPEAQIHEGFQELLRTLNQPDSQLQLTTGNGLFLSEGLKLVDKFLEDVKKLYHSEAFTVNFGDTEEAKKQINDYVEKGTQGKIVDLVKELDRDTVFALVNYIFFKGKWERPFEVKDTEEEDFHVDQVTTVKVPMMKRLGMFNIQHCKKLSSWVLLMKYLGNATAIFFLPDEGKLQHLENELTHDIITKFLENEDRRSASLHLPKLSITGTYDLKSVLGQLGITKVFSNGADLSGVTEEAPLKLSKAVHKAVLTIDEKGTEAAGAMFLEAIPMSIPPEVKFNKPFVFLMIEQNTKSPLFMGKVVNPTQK

WIKWTK
Percent A1PI Eluted by Fraction Based on Absorbance at 280 nm, 1M NaCl ([1]; 4° C.): 100%
Percent A1PI Eluted by Fraction Based on Absorbance at 280 nm, 2% Acetic Acid ([1]; 4° C.): 0%
Percent A1PI Eluted by Fraction Based on Absorbance at 280 nm, Flowthrough ([1]; 4° C.): 0%
Percent A1PI Eluted by Fraction, 1M NaCl ([1]; 20° C.): 91%
Percent A1PI Eluted by Fraction, 2% Acetic Acid ([1]; 20° C.): 2%
Percent A1PI Eluted by Fraction, Flowthrough ([1]; 20° C.): 7%
Mass Protein per Eluate Fraction, 1M NaCl ([2]; 20° C.): 0.80 mg
Mass Protein per Eluate Fraction, Flow ([2]; 20° C.): 0.02 mg
Percent Eluted by Fraction, 1M NaCl [2, 3]: 97%
Percent Eluted by Fraction, 2% Ac. Acid [2, 3]: 0%
Percent Eluted by Fraction, 3M NaCl [2, 3]: 0%
Percent Eluted by Fraction, Flow [2, 3]: 3%

WKLWRW
Percent A1PI Eluted by Fraction Based on Absorbance at 280 nm, 1M NaCl ([1]; 4° C.): 80%
Percent A1PI Eluted by Fraction Based on Absorbance at 280 nm, 2% Acetic Acid ([1]; 4° C.): 20%
Percent A1PI Eluted by Fraction Based on Absorbance at 280 nm, Flowthrough ([1]; 4° C.): 0%
Percent A1PI Eluted by Fraction, 1M NaCl ([1]; 20° C.): 67%
Percent A1PI Eluted by Fraction, 2% Acetic Acid ([1]; 20° C.): 33%
Percent A1PI Eluted by Fraction, Flowthrough ([1]; 20° C.): 0%
Mass Protein per Eluate Fraction, 1M NaCl ([2]; 4° C.): 0.44 mg
Mass Protein per Eluate Fraction, 2% Ac. Acid ([2]; 4° C.): 0.06 mg
Mass Protein per Eluate Fraction, Flow ([2]; 4° C.): 0.17 mg
Percent Eluted by Fraction, 1M NaCl [2, 4]: 66%
Percent Eluted by Fraction, 2% Ac. Acid [2, 4]: 9%
Percent Eluted by Fraction, Flow [2, 4]: 25%
Mass Protein per Eluate Fraction, 1M NaCl ([2]; 20° C.): 0.15 mg
Mass Protein per Eluate Fraction, 2% Ac. Acid ([2]; 20° C.): 0.40 mg
Mass Protein per Eluate Fraction, 3M NaCl ([2]; 20° C.): 0.05 mg
Mass Protein per Eluate Fraction, Flow ([2]; 20° C.): 0.16 mg
Percent Eluted by Fraction, 1M NaCl [2, 3]: 20%
Percent Eluted by Fraction, 2% Ac. Acid [2, 3]: 52%
Percent Eluted by Fraction, 3M NaCl [2, 3]: 7%
Percent Eluted by Fraction, Flow [2, 3]: 21%

IWRKYS
Percent A1PI Eluted by Fraction Based on Absorbance at 280 nm, 1M NaCl ([1]; 4° C.): 94%
Percent A1PI Eluted by Fraction Based on Absorbance at 280 nm, 2% Acetic Acid ([1]; 4° C.): 6%
Percent A1PI Eluted by Fraction Based on Absorbance at 280 nm, Flowthrough ([1]; 4° C.): 0%
Percent A1PI Eluted by Fraction, 1M NaCl ([1]; 20° C.): 81%
Percent A1PI Eluted by Fraction, 2% Acetic Acid ([1]; 20° C.): 19%
Percent A1PI Eluted by Fraction, Flowthrough ([1]; 20° C.): 0%
Mass Protein per Eluate Fraction, 1M NaCl ([2]; 4° C.): 0.68 mg
Mass Protein per Eluate Fraction, Flow ([2]; 4° C.): 0.03 mg
Percent Eluted by Fraction, 1M NaCl [2, 4]: 96%
Percent Eluted by Fraction, 2% Ac. Acid [2, 4]: 0%
Percent Eluted by Fraction, 3M NaCl [2, 4]: 0%
Percent Eluted by Fraction, Flow [2, 4]: 4%
Mass Protein per Eluate Fraction, 1M NaCl ([2]; 20° C.): 0.58 mg
Mass Protein per Eluate Fraction, 2% Ac. Acid ([2]; 20° C.): 0.11 mg
Mass Protein per Eluate Fraction, 3M NaCl ([2]; 20° C.): 0.00 mg
Percent Eluted by Fraction, 1M NaCl [2, 3]: 83%
Percent Eluted by Fraction, 2% Ac. Acid [2, 3]: 17%
Percent Eluted by Fraction, 3M NaCl [2, 3]: 0%
Percent Eluted by Fraction, Flow [2, 3]: 0%

RVLFIV: reversed sequence of VIFLVR
binding of AlPI (in words) [1]: excellent binding
Percent AlPI Eluted by Fraction, 1M NaCl ([1]; 4° C.): 27%
Percent AlPI Eluted by Fraction, 2% Acetic Acid ([1]; 4° C.): 65%
Percent AlPI Eluted by Fraction, Flowthrough ([1]; 4° C.): 8%
Percent AlPI Eluted by Fraction, 1M NaCl ([1]; 20° C.): 3%
Percent AlPI Eluted by Fraction, 2% Acetic Acid ([1]; 20° C.): 90%
Percent AlPI Eluted by Fraction, Flowthrough ([1]; 20° C.): 7%
Mass Protein per Eluate Fraction, 1M NaCl ([2]; Table 19, 4° C.): 0.11 mg
Mass Protein per Eluate Fraction, 2% Acetic Acid ([2]; Table 19, 4° C.): 0.25 mg
Mass Protein per Eluate Fraction, Flow ([2]; Table 19, 4° C.): 0.48 mg
Percent Eluted by Fraction, 1M NaCl [2, 5]: 13%
Percent Eluted by Fraction, 2% Acetic Acid [2, 5]: 30%
Percent Eluted by Fraction, 3M NaCl [2, 5]: 0%
Percent Eluted by Fraction, Flow [2, 5]: 57%
Mass Protein per Eluate Fraction, 1M NaCl ([2]; Table 19, 20° C.): 0.04 mg
Mass Protein per Eluate Fraction, 2% Acetic Acid ([2]; Table 19, 20° C.): 0.54 mg
Mass Protein per Eluate Fraction, Flow ([2]; Table 19, 20° C.): 0.22 mg
Percent Eluted by Fraction, 1M NaCl [2, 6]: 5%
Percent Eluted by Fraction, 2% Acetic Acid [2, 6]: 68%
Percent Eluted by Fraction, 3M NaCl [2, 6]: 0%
Percent Eluted by Fraction, Flow [2, 6]: 28%

IIe Lys Arg Tyr Tyr Leu (IKRYYL)
Percent A1PI Eluted by Fraction Based on Absorbance at 280 nm, 1M NaCl ([1]; 4° C.): 97%
Percent A1PI Eluted by Fraction Based on Absorbance at 280 nm, 2% Acetic Acid ([1]; 4° C.): 3%
Percent A1PI Eluted by Fraction Based on Absorbance at 280 nm, Flowthrough ([1]; 4° C.): 0%
Percent A1PI Eluted by Fraction, 1M NaCl ([1]; 20° C.): 92%
Percent A1PI Eluted by Fraction, 2% Acetic Acid ([1]; 20° C.): 8%
Percent A1PI Eluted by Fraction, Flowthrough ([1]; 20° C.): 0%

V I F L A R: point mutation of VIFLVR, position 5 (VIFLAR)
% of Total A1PI Eluted by Fraction (Based on Absorbance at 280 nm), 1M NaCl ([1]; 4° C.): 25%
% of Total A1PI Eluted by Fraction (Based on Absorbance at 280 nm), 2% Acetic Acid ([1]; 4° C.): 75%
% of Total A1PI Eluted by Fraction (Based on Absorbance at 280 nm), Flowthrough ([1]; 4° C.): 0%
% of Total A1PI Eluted by Fraction (Based on Absorbance at 280 nm), 1M NaCl ([1]; 20° C.): 0%
% of Total A1PI Eluted by Fraction (Based on Absorbance at 280 nm), 2% Acetic Acid ([1]; 20° C.): 25%
% of Total A1PI Eluted by Fraction (Based on Absorbance at 280 nm), Flowthrough ([1]; 20° C.): 75%

V I F L F R: point mutation of VIFLVR, position 5 (VIFLFR)
% of Total A1PI Eluted by Fraction (Based on Absorbance at 280 nm), 1M NaCl ([1]; 4° C.): 3%
% of Total A1PI Eluted by Fraction (Based on Absorbance at 280 nm), 2% Acetic Acid ([1]; 4° C.): 56%
% of Total A1PI Eluted by Fraction (Based on Absorbance at 280 nm), Flowthrough ([1]; 4° C.): 40%
